Laboratory results as given in PMC12354777 (Nature Communications, 2025).
Changes are numbered by the printed parent chain. Numbers in names are those of the source.

T1: HR1C peptide of SARS-CoV-2 (residues 937-955), His6-tagged (SARS-CoV-2, UniProt P0DTC2)
T1 chain: SLSSTASALGKLQDVVNQN

B1: 3D1 mutant Y93A (light chain, CDRL3) (antibody, V domains shown)
VH: QVQLVQSGSELKKPGASVRISCKASGYSFTSLSMNWVRQAPGQGLEWMGWISTKSGDPTYAQAFTGRFVFSLDTSVNTAYLQINSLEAGDTAVYYCARGQPPVGWTFDYWGQGTLVTVSS
VL: QSALTQPPSASGSPGQSVTISCTGTSSDVGGYNYVSWYQQHPGKAPKLIIYEVSKRPSGVPDRFSGSKSGNTASLTVSGLQAEDEADYYCSSATSSSTLVFGGGTKLTVL
B2: 3D1 mutant N35A (heavy chain) (antibody, V domains shown)
VH: B1 VH with N35A
VL: B1 VL with A93Y
B3: 3D1 mutant W105A (heavy chain, CDRH3) (antibody, V domains shown)
VH: B1 VH with W105A
VL: B1 VL with A93Y

Molecular target: T1, HR1C peptide of SARS-CoV-2 (residues …)
Assay: BLI

Row | Binder | binding result
1 | B1 | no binding
2 | B2 | no binding
3 | B3 | no binding
